Source: publication PMC7954794, “Protein context shapes the specificity of SH3 domain-mediated interactions in vivo” (Nature Communications, 2021)

Tested on: PPIs identified as affected by the SH3 domain deletions
Experiment: Liquid DHFR-PCA low-throughput validation of PPIs affected by SH3 deletion (Fig. S1D-E)
Type: cell-based, Saccharomyces cerevisiae
Conditions: label = prey, liquid DHFR-PCA, prey _1 = lost, _2 = gained in screen
How it was run: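 Yeast diploids from DHFR-PCA mating grown 48 h in synthetic complete MSG medium pH 6.0 with NAT and HPH, normalized to 1 OD and diluted to 0.1 OD in liquid PCA selection medium. Growth followed by OD every 15 min for 72 h at 30 °C.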

B1: YJR076C_1 (protein, UniProt P32458 2-415, looked up)
Cell division control protein …: SGIIDASSALRKRKHLKRGITFTVMIVGQSGSGRSTFINTLCGQQVVDTSTTILLPTDTSTEIDLQLREETVELEDDEGVKIQLNIIDTPGFGDSLDNSPSFEIISDYIRHQYDEILLEESRVRRNPRFKDGRVHCCLYLINPTGHGLKEIDVEFIRQLGSLVNIIPVISKSDSLTRDELKLNKKLIMEDIDRWNLPIYNFPFDEDEISDEDYETNMYLRTLLPFAIIGSNEVYEMGGDVGTIRGRKYPWGILDVEDSSISDFVILRNALLISHLHDLKNYTHEILYERYRTEALSGESVAAESIRPNLTKLNGSSSSSTTTRRNTNPFKQSNNINNDVLNPASDMHGQSTGENNETYMTREEQIRLEEERLKAFEERVQQELLLKRQELLQREKELREIEARLEKEAKIKQEE
B1 was tested, and the “Ratio (Deletedscore / WTscore)” value (bait BEM1-2) was 0.6782, the “Ratio (Deletedscore / WTscore)” value (bait MYO3) was 0.8182 and the “Ratio (Deletedscore / WTscore)” value (bait MYO5) was 0.9436. For the same molecule, the “Ratio (Deletedscore / WTscore)” value (bait RVS167) was 1.148.

B2: YCR002C_1 (protein, UniProt P25342 1-322, looked up)
Cell division control protein …: MDPLSSVQPASYVGFDTITNQIEHRLLKKGFQFNIMVVGQSGLGKSTLINTLFASHLIDSATGDDISALPVTKTTEMKISTHTLVEDRVRLNINVIDTPGFGDFIDNSKAWEPIVKYIKEQHSQYLRKELTAQRERFITDTRVHAILYFLQPNGKELSRLDVEALKRLTEIANVIPVIGKSDTLTLDERTEFRELIQNEFEKYNFKIYPYDSEELTDEELELNRSVRSIIPFAVVGSENEIEINGETFRGRKTRWSAINVEDINQCDFVYLREFLIRTHLQDLIETTSYIHYEGFRARQLIALKENANSRSSAHMSSNAIQR
For B2, the “Ratio (Deletedscore / WTscore)” value (bait BEM1-2) was 0.5157, the “Ratio (Deletedscore / WTscore)” value (bait BOI1) was 0.9522 and the “Ratio (Deletedscore / WTscore)” value (bait NBP2) was 0.7856. For the same molecule, the “Ratio (Deletedscore / WTscore)” value (bait RVS167) was 0.8283.

B3: YJL151C_2 (protein, UniProt P14359 1-133, looked up)
Protein SNA3: MDRDHINDHDHRMSYSINKDDLLLMVLAVFIPPVAVWKRKGMFNRDTLLNLLLFLLLFFPAIIHACYVVYETSSERSYDLSRRHATAPAVDRDLEAHPAEESQAQPPAYDEDDEAGADVPLMDNKQQLSSGRT
With B3 the “Ratio (Deletedscore / WTscore)” value (bait ABP1) was 1.204 and the “Ratio (Deletedscore / WTscore)” value (bait BZZ1-2) was 1.485.

B4: YDL146W_1 (protein, UniProt Q12342 1-491, looked up)
Protein LDB17: MILDPLSPNIENHTQDEIIEFWEKTESIANIPKENLDESHVNSSLVAYLKFATDSYKVFINTDRDLYRMSLILLESSLFEFKKEFCLSKLQSLLNIDLLEMNMKFIIVYILLCEAKKNVYSLEIMLKFQGFTVFYNTLYTQFAYLSKYGKERTVASKHQYNSNNSSTGTSLDSLDRSLTDIDLGIIDEMKQISTVLMDLLFQIMKYCKCVIANLQIVDDFFVYYMMESMRSDTMDDMFNNAEFKLLLALNEQYMMFAKEYDIENKVYKYLINGSVSRCFTELLLLKFNRASDPPLQIMMCKIIYLILTPRGDYSPMNFFYTNDLRVLIDVLIRELQNISEDEEVLRNTLLRVLIPLLKNTQLSKTHYRKDDLNKLLNYLSTLDNICVDSPALHEHQVTVALSRKCLQQIPWLETPSTPSDGGSSVSSNNTSRNSSIVALGTPDNQNILARKGHLYSNRELDVSAESLTKRKAKAPPPPPPPPPSRKCGTPK
B4 was tested, and the “Ratio (Deletedscore / WTscore)” value (bait BZZ1-1) was 0.5572, the “Ratio (Deletedscore / WTscore)” value (bait BZZ1-2) was 0.7122 and the “Ratio (Deletedscore / WTscore)” value (bait LSB3) was 0.6902.

B5: YER114C_1 (protein, UniProt P39969 1-1040, looked up)
BEM1-interacting protein 2: MSNDREVPTLSQLNTTVSRDKDVSDTLSPDFDSKGSATGRDGGNFPMYIAINEYFKRMEDELDMKPGDKIKVITDDEEYKDGWYFGRNLRTNEEGLYPVVFTQKITVEKAPTLMRAKSTKRIYSPLTNEDPLLSSTFISENDSNSELPTPQPIETAASISRTANGKIERNLSLKNTMSDIDNALLEFKDDSIGPPDRFINSGRDEEHSITHETILSATDGLDVVESNSKPTTSSSTGFLNGDLENQATLINGIDTTKLNPVEAEFWSPEEITAYFIMEGYDVQSASRFQKHKISGKILLELELVHLKELDINSFGTRFEIFKEIEKIKEAIRTNGRSLNRASKTNNANIYNQLMPPANVDQRASYRGHVRKTSQSLEDLPSQQNFIPTPRNTRNSSASKHRPKSLVFDSQEANANIAPDVQIPQVVEEMAGNENLFVSPRRAPKPPSYPSPAQPPKSPLLNNTRTSPSPAQLYSWQSPTLSFSGPKRTSYIDQYSSSDSNFNSRSALPKNNQGGGKALSPIPSPTRNSVRNEDSEGKLTSSSKRNSVPYYGYAPESSSDRKSSCSSHEEEQFQETMNTFERPTSSIYADGSTIASISNDKLAHEKEGKKKPTRHSSSLSSKSKSDSRRNSSLKRSSSASRTSSFKKSSFMLSPFRQQFTDNAARSSSPEENPITSMPSEKNSSPIVDKKSSKKSRSKRRSVSAKEAEIFTETVKDDKNKRSASEAIKGETLKGKSLRQMTARPVAKKKQTSAFIEGLRSISVKEAMKDADFSGWMSKKGSGAMSTWKTRFFTLHGTRLSYFSSTTDTRERGLIDITAHRVVPAKEDDKLVSLYAASTGKGRYCFKLLPPQPGSKKGLTFTQPRTHYFAVDNKEEMRGWMAALIKTTIDIDTSVPIISSYTTPTVSLSKAQEMLAEAREETKLREQQMLENEEDEDQFLWDQQQLQQQQHDNNQGQADRTISASTQRTSDEDNTISTPNLSSANNTTIGSNGFSSPFLLASGLLSPGVARNSSMRGTEKKGKFSTEEDYFGDNSKHKTDKI
With B5 the “Ratio (Deletedscore / WTscore)” value (bait BEM1-2) was 0.3794.

B6: YDR166C_1 (protein, UniProt P89102 1-971, looked up)
Exocyst complex component SEC5: MDRFQIGDEQLLRFYQLKTINPTHSWAQDSSKLNNEEATSNELGVETSFDILKDFKYGNQISIDKESRAYLNDESLSYIRDPLNGQEMSKELQHLPNDSMRLNYLVNSKQFNVKAFLRDMHKQDSFNDLNNSLDRLDSDIQDQSIHLKQLVGKNFTKYVKIKNKLDQIYKEFDEKTNEKNQCDSPKENQINVESLNKKVDEVIRTTTFKLKPLMDNYQKILNYQATKKFIELNKFYFNLPKSLKRCLTNNDFNEFIIEYSKGLTLRRRFNQSSDASQSLVIKRIWTQIENLLVTYKDLIWNSLINSNFNIDQPQETILSLFSKLLNLENFINNNQRESESGNKNTTSSSNENPILRWMSIKMNGFQNELNELSGHMISKIIHSQRLILQNNTNQDKSQGCVELSYYLKINQLFQIISDTGKDSEGLKSTVEPNKVNTISGTSYLNLNCQPSSQGLTDSPTIIEMWLLILKYINDLWKICDQFIEFWEHIEKFLDGTYQNSIINEKRKENILIGDSNIIESYQKSLILKEEQINEVRLKGEEFITSVSQNLISFFTSSQSSLPSSLKDSTGDITRSNKDSGSPLDYGFIPPNCNGLSCLRYLPKIVEPILKFSTELAQLNITTNGITICRNTLSTIINRCVGAISSTKLRDISNFYQLENWQVYETVTFSSKSQDSSKNLTFEYGVTQFPEIVTSFQEVSIKTTRDLLFAYEKLPIINGISVVSYPSKQLLTGIEIQQIISMEAVLEAILKNAAKDKDNPRNSHTILTLTNLQYFRECAFPNILQYFDDAFEWNLASKNLELFSLLSKMESSIFGNYLSDLKINLRDTLEEKFHEINWPMYTSNSFRVGDYIIEALMILIVVHSECFRIGPQLIHKILIETQIFIARYLFEAFKPYVGNLSNDGSLQIIVDLEFFQKVMGPLLEKDTEATLRACLQNCFQNDTNRLQKCINEINPIVSANLKRTAIQFAAFS
For B6, the “Ratio (Deletedscore / WTscore)” value (bait BEM1-2) was 0.5345 and the “Ratio (Deletedscore / WTscore)” value (bait BOI2) was 0.7084.

B7: YLR314C_1 (protein, UniProt P32457 2-520, looked up)
Cell division control protein …: SLKEEQVSIKQDPEQEERQHDQFNDVQIKQESQDHDGVDSQYTNGTQNDDSERFEAAESDVKVEPGLGMGITSSQSEKGQVLPDQPEIKFIRRQINGYVGFANLPKQWHRRSIKNGFSFNLLCVGPDGIGKTTLMKTLFNNDDIEANLVKDYEEELANDQEEEEGQGEGHENQSQEQRHKVKIKSYESVIEENGVKLNLNVIDTEGFGDFLNNDQKSWDPIIKEIDSRFDQYLDAENKINRHSINDKRIHACLYFIEPTGHYLKPLDLKFMQSVYEKCNLIPVIAKSDILTDEEILSFKKTIMNQLIQSNIELFKPPIYSNDDAENSHLSERLFSSLPYAVIGSNDIVENYSGNQVRGRSYPWGVIEVDNDNHSDFNLLKNLLIKQFMEELKERTSKILYENYRSSKLAKLGIKQDNSVFKEFDPISKQQEEKTLHEAKLAKLEIEMKTVFQQKVSEKEKKLQKSETELFARHKEMKEKLTKQLKALEDKKKQLELSINSASPNVNHSPVPTKKKGFLR
For B7, the “Ratio (Deletedscore / WTscore)” value (bait BEM1-2) was 0.9934 and the “Ratio (Deletedscore / WTscore)” value (bait NBP2) was 0.9977.
